Measured values published in patent US20210253648A1.

Molecular target: HLA-A2 MHC class I molecule on the surface of the target cells (no C2 peptide added) (human)

TCR CMV-pp65-PE STAR multimer reagent (Soluble T-Cell Antigen Receptor STAR Multimer, Altor Bioscience)
Percentage of Positive Cells: 0.96% | iMFI: 70 RFU
